Measurements as given in paper PMC8211825, “Molecular mechanism of calcium induced trimerization of C1q-like domain of otolin-1 from human and zebrafish” (Scientific Reports, 2021).
Residue numbers refer to the chain shown, from its start. Numbers in names are those of the source. Where “and” joins values, the source holds several entries; their conditions need not be identical. Equal values may be shown once.

B1: C1q-like domain of otolin-1 from zebrafish (domain or fragment)
chain: not shown
notes: gC1q (C1q-like) domain of zebrafish otolin-1, UniProt A5PN28; printed monomer MW 17.1 kDa; Subcloned in pQE-80 L; also called dOtolC1q; native dOtolC1q
B2: C1q-like domain of otolin-1 from human (domain or fragment, UniProt A6NHN0 338-473, looked up)
chain: ARVPRSAFSAGLSKPFPPPNIPIKFEKILYNDQGNYSPVTGKFNCSIPGTYVFSYHITVRGRPARISLVAQNKKQFKSRETLYGQEIDQASLLVILKLSAGDQVWLEVSKDWNGVYVSAEDDSIFTGFLLYPEETS
notes: gC1q (C1q-like) domain of human otolin-1, UniProt A6NHN0; printed monomer MW 17.0 kDa; Subcloned in pQE-80 L; The tag is known only from TALON purification and a 6xHis Western blot; also called hOtolC1q; native hOtolC1q
B3: hOtolC1q E470A (domain or fragment, human, UniProt A6NHN0 338-473, looked up)
chain: B2 chain with E133A
notes: gC1q (C1q-like) domain of human otolin-1, UniProt A6NHN0, natural SNP variant E470A (rs3921595); also called E470A variant; natural variant hOtolC1q E470A; source: 0.1% NP40 substitute added to the cell suspension

Target: the molecule itself
Assay: AUC; sedimentation velocity, c(s) analysis in SEDFIT; 10 mM CaCl2; 10 mM HEPES pH 7.0, 500 mM NaCl, 5% glycerol; 20 °C, 50,000 rpm; protein about 0.1, 0.25 and 0.5 mg/ml; self-association of the gC1q domain into trimers

Protein	stoichiometry N
B1	2 and 3
B2	3
B3	3
